Where no end group is shown, it is not given here. [ ]: non-standard residue; d: D form. Lys(Me3) = C[N+](C)(C)CCCC[C@H](N)C(=O)O; Lys(Me2) = CN(C)CCCC[C@H](N)C(=O)O; Lys(Me) = CNCCCC[C@H](N)C(=O)O

In general, Kd refers to a measure of binding affinity in units of concentration. A lower Kd goes with tighter binding.

T1 sequence (O75530 40-441): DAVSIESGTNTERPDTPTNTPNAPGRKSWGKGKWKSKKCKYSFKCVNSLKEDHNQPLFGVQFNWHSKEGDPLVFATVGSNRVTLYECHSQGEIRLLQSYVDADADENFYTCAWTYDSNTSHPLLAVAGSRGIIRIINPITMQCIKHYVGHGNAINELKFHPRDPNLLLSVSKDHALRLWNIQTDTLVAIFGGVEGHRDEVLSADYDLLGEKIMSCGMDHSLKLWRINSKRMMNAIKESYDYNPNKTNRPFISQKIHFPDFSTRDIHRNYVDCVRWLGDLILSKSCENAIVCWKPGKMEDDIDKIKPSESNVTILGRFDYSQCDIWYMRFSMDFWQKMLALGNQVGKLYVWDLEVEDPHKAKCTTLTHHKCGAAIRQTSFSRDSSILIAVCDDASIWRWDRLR

One test has as its target T1, EED (amino acids 40-441) (human, UniProt O75530-1 40-441).
T1 construct: pGEX-MHL vector, TEV-cleavable GST tag; source: E. coli BL21 (DE3), purified (Glutathione-agarose, TEV cleavage, heparin, gel filtration); not shown: GST, N-terminal, cleaved
The test is described as follows: fluorescence polarisation; fluorescence anisotropy direct titration: various concentrations of EED (40-441) with 40 nM 5-FAM labelled JARID2-K116me3 peptide; 50 mM Tris-HCl pH 7.5, 100 mM KCl, 2 mM 2-mercaptoethanol, 0.1 mg/mL BSA, 0.05% NP-40, 2.5% glycerol; 30 °C, 30 min. As to conditions: both partners purified. For orientation: Fluorescence polarisation rises when a labelled molecule tumbles more slowly, as on binding a larger partner.
For RLQAQR[Lys(Me3)]FAQSQY (also: 5-FAM (5-carboxyfluorescein, single isomer) label, site not given here) [5-carboxyfluorescein (5-FAM) labelled JARID2-K116me3 peptide], the Kd was found to be 8.07 µM.

The next test has as its target T1, EED (amino acids 40-441). In words: fluorescence polarisation; fluorescence anisotropy displacement titration: 2-fold serial dilutions of unlabelled peptide with 10 µM EED and 40 nM 5-FAM labelled JARID2-K116me3 peptide; same buffer, 30 °C; Kd of the unlabelled peptide from a fit. As to conditions: both partners purified.
For the molecule LK[Lys(Me2)]FPG [PALI1-K1241me2 peptide], the Kd is 19 µM. Same read-out and setting: the same measure for LK[Lys(Me)]FPG [PALI1-K1241me1 peptide]: 241 µM; for LK[Lys(Me3)]FPG [PALI1-K1241me3 peptide]: 7.49 µM.

On to TKAAR[Lys(Me3)]SAPAT (also: trimethyllysine at K27, position not placed (two Lys in chain)) [H3K27me3 peptide], for which the affinity, expressed as Kd, was 41.7 µM.

In turn, LQ[Lys(Me3)]YA [PALI1-K1219me3 peptide] came in with a Kd of 7.59 µM.

For the origin of these results see publication PMC8319299, “PALI1 facilitates DNA and nucleosome binding by PRC2 and triggers an allosteric activation of catalysis” (Nature Communications, 2020).
